Data taken from publication PMC7517697.
pKd: −log10 of the molar value.

System: T1, CATH-B1 (mature cathelicidin-B1 peptide) (chicken)
T1 sequence: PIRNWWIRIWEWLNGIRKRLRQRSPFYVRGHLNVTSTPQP
Assay: ITC
Conditions: 75% PBS, 37 °C, dH -65.5 kJ/mol, dS -73.5 J/mol as printed, ITC: 75% PBS (PBS/H2O 3:1 v/v), 200 µM CATH-B1 in syringe titrated in 1 µL injections at 300 s intervals into ODN-2006 (25 nM as printed), pH not stated

ODN-2006
pKd: 7.19
